Test results: the supplement of paper PMC9170038

Tested on: MS2 coat protein
Test: apparent KD of MS2 coat protein; higher = weaker reporter binding
Conditions: Eterna round: R107
Summary of the method: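 Designed RNA switches, transcribed on-chip from Illumina sequencing clusters, were titrated with SNAP-549-labelled MS2 coat protein from 0.7 or 1.5 nM to 3 µM in twofold steps. The solution was 100 mM Tris-HCl pH 7.5, 80 mM KCl, 4 mM MgCl2, with constant ligand or without it. Apparent KD is the median over each design's normalised cluster binding-curve fits.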

[1] = input ligand: theophylline 20 uM
[2] = input ligand: theophylline 2 mM
[3] = input ligand: tryptophan 2.4 mM

Row | Sequence | apparent KD of MS2 coat protein (input ligand: arginine 13.2 mM) | apparent KD of MS2 coat protein (input ligand: none) | apparent KD of MS2 coat protein [1] | apparent KD of MS2 coat protein [2] | apparent KD of MS2 coat protein [3]
1 | GGGCGAGUGGACCGGCGUGCUCCGCUCCGUCGAGGACCGGUACGGCCGCCACUCGACAUGAGGAUCACCCAUGUGCGAGCUCGCG [#1 Exclusion - Tryptophan A Attempt #14 (HarryS)] | 32.7 nM | 77.5 nM | 114 nM | 82.4 nM | 86 nM
2 | CCUGCUACGGGAAACCGUAGCAGGAAUGAUACCAGUAGGAAAGACUACCCUUGGCAGCAUGGGAAACAUGAGGAUCACCCAUGUU [SSThA NP+V+V2 #7 Same Structure] | 37.1 nM |  | 76.3 nM |  | 50.8 nM
3 | UACAUGAGGAUCACCCAUGUGUAACCAGAAGGAGCGUGCGAAAGCACAGGUAGGUCGCUGGUGGGUUUAGGUUUAAUAGGUGUAU [SSAA NP+V+V2 #4 +-Same Structure] | 32.8 nM | 32.3 nM | 54.1 nM | 40.6 nM | 34.6 nM
4 | GGACUAACCAGAAGGAGCGACACAGCAGAAACUGCAAAUCCUCCGCACGAGGAUCACCCGUGUCAGGUAGGUCGCUGGUUAGUCG [ArgBX 28] | 37.4 nM | 49.5 nM | 55.9 nM | 71.6 nM | 42.7 nM
5 | AAGCUGCCAAGAAGGUGAUCCAAAUGUGAUACCAGCUAGGAAACUAGCCCUUGGCAGCACAUGAGGAUCACCCAUGUAAUAAUAA [(T)'-(M)'-(T1)-(T2)-(M1)-(M2)_Design1_2/19/17] | 37.7 nM |  | 191 nM |  | 48.3 nM
6 | UUCCACCUAAAGCGUUGCCCUCGUGAUGAUACCAGUUUCAGCGGUAACCCUUGGCAGCAUCGGACAUGAGGAUCACCCAUGUGGA [theeternabot_exclusion_MS2_Theo_A_47] | 64.9 nM |  | 136 nM |  | 107 nM
7 | CGCGUCCCGGACGAUACCAGAUAUGAGCGACACAUGAGGAUCACCCAUGUCAAUCAUGAGAUCCCUUGGCAGCGUUUGCACAACU [theeternabot_sameState_MS2_Theo_B_8] | 81.2 nM |  | 210 nM |  | 183 nM
8 | AAUGUAUGGCACAUGAGGAUCACCCAUGUGCGAGGACCGGUACGGCCGCCACUCGGUCCUGGGAUCUUAUUACUAUACAUUAAUG [XTryp A #17] | 11.8 nM |  | 15.7 nM | 12.5 nM | 
9 | UCCAUCGGCGGAAGCCGAUGGUUUACAGAAGGAGCGUGGAUUAACACAGGUAGGUCGCUGGACAUGAGGAUCACCCAUGUGAUAG [SSAA #6] | 40.1 nM | 60.4 nM | 117 nM | 60.4 nM | 55 nM
10 | GGCGUGGUCGGAAGGAGCGACAUGAGGAUCACCCAUGUCUCCCGUUAUGGGAGUUCCUUAGGUCAGGUAGGUCGCCGACUGCGGC [#1 Exclusion - Arginine B Attempt #22 (Inspired by Omei)] | 41.6 nM | 231 nM | 123 nM | 326 nM | 159 nM
11 | GGGUGGUAGGCGGCCGCCACUGAUUUUUAUUUAUAGAUGACAUGAGGAUCACCCAUGUUUAUAUGCAGGACCGGGCCUGUUGUGG [aaaQ] | 12 nM |  | 22.5 nM | 17.6 nM | 
12 | AAUAAACAUGAGGAUCACCCAUGUUGUUGACGAGGACCGGUACGGCCGCCACUCGACAUGAGGAUCACCCAUGUUGUCACAUGAG [Same State Tryptophan A] | 73.1 nM |  | 190 nM | 256 nM | 
13 | UGUAUGGACUGAAGGAGCGCCUCAAAAUAACAUGAGGAUCACCCAUGUGGCGAAAGCCUUGGGCAGGUAGGUCGCAGUCCAUACU [ArgBX 1 #StaticStem] | 62 nM | 49.9 nM | 76.2 nM | 72.1 nM | 52.9 nM
14 | AGCGACAUGCGUGAUACCAGCUACAUGAGGAUCACCCAUGUCAGUAGGAAACUGCUGUGUAGCCCUUGGCAGCACAGUGCAUGUC [Exclusion - Theophylline B (Freestyle 27)] | 36 nM |  | 47.5 nM |  | 36.4 nM
15 | ACAUGAGGAUCACCCAUGUGAAGGCACGAUACCAGCUGAUCCCGUGGCCCUUGGCAGCGUCCGGUUUGGUCCGGCGGAUGAGACG [azamullin] | 19.6 nM |  | 36.4 nM |  | 23.5 nM
16 | AUACACCUCGUCCAGGCAAUCUUUAGUGAUACCAGCUAACUCCGUGGCCCUUGGCAGCACAUGAGGAUCACCCAUGUGCGACAUC [Bioninen] | 10.2 nM |  | 13.4 nM |  | 11.6 nM
17 | CAGGCUAGGACGGCCGCCACUGUGGCUACGGUACAUGAGGAUCACCCAUGUUUGUGGUUGAUCUACAGGACCGGGUCCUGACACG [Letisoonri] | 22.2 nM |  | 134 nM | 278 nM | 
18 | AGCUCGCAUCCUCUAGCGUCAAAGACGCCUCGAGGACCGGUACGGCCGCCACUCGAUAUGAGGAUCACCCAUAUCAAAGCGAGCA [TrypAX 2 #SwitchBubble #AlternativeMS2 #MS2Late #CuTurnoff] | 32.7 nM | 53.8 nM | 59.5 nM | 75.5 nM | 581 nM

Row | Sequence | apparent KD of MS2 coat protein (input ligand: arginine 13.2 mM) | apparent KD of MS2 coat protein (input ligand: none) | apparent KD of MS2 coat protein [1] | apparent KD of MS2 coat protein [2] | apparent KD of MS2 coat protein [3]
19 | AAAUAAAUCACAUGAGGAUCACCCAUGGAUACCAGGCCUGGAAACAGCCCUUGGCAGCCACAUGAGGAUCACCCAUGUGCUAAUA [MAT - Exclusion Theophlline A - Mod of Eli - D1] | 89.8 nM |  | 194 nM |  | 152 nM
20 | UCAUAUUAGAUAGAUGUAAGGUAUCAUGAUACCAGUAGAUAAUUAUACCCUUGGCAGCAUAACAUGAGGAUCACCCAUGUACAUG [Aa] | 20.3 nM |  | 22 nM |  | 17.9 nM
21 | GGGCGUGUGGUGCGGCGUGUUCCGCUCCGUCGAGGACCGGUACGGCCGCCACUCGACAUGAGGAUCACCCAUGUGCGAGCGCGCG [#1 Exclusion - Tryptophan A Attempt #8 (HarryS)] | 13.2 nM | 11.5 nM | 13.2 nM | 11.7 nM | 19.2 nM
22 | CAGAACAUGAGGAUCACCCAUGUUAGGGAUACCAGCUCAGACAUGGGCCCUUGGCAGCUCUAUGGCUGACGAAAGUCAGCAUCUG [#16 SameState-TheophyllineA] | 70.5 nM | 41.7 nM | 874 nM | 3.01 nM | 42.5 nM
23 | GGUUACUCUACGGCCGCCACUGAUUAAUUAUAAACCUGUACAUAAACAUGAGGAUCACCCAUGUACAGGACCGGGUAGUGUAACC [Tryptophan B 9] | 30.5 nM |  | 46.9 nM | 39.1 nM | 
24 | UGUAUGUGAUUUGAUACCAGACCAGCGGGUGUUGCAUGAGGAUCACCCAUGUAGGUUUGGGUCCCUUGGCAGCAAAUCGCAUACU [SS Theo B #24 Ms18] | 289 nM | 482 nM | 438 nM | 127 nM | 523 nM
25 | UGCCGAGACGUGGAUUACCCGUGUACCGAAGGAGCGCCCGAAAGGGCAGGUAGGUCGCGGAGGACAUGAGGAUCACCCAUGUUGA | 32.8 nM | 73.7 nM | 43.7 nM | 96.8 nM | 54.8 nM
26 | UUGGGUUUGUGAAGGAGCGGGUAUGUUUUCUAGUGGAUCCUAACAUGAGGAUCACCCAUGUCCCAGGUAGGUCGCGCGGGUUUGG [12.U] | 64.6 nM | 117 nM | 227 nM | 99.8 nM | 81.8 nM
27 | CUCCCGUGGUCGGCCGCCACUGGAGGCCUCGCGCGACAUGAGGAUCACCCAUGUUGGCCCGGCGUCAGGACCGGGAUCGCGUGAG [#1 Same State - Tryptophan B Attempt #9 (HarryS)] | 11.8 nM | 11 nM | 10.3 nM | 12.1 nM | 10.8 nM
28 | AAAGAUCGGAAACGAUCGGCGGCUUGGGCGCGAGGACCGGUACGGCCGCCACUCGGGAAACAUGAGGAUCACCCAUGUUGCUAGC [ETA NP+V+V2 #15] | 12.3 nM |  | 18.4 nM | 16.8 nM | 
29 | AUACGGCGGUAAAAUCAGAGAGUAAAAGAUACCAGCAAUAAUAAAUGCCCUUGGCAGCUUCUGACAUGAGGAUCACCCAUGUAAA [theeternabot_exclusion_MS2_Theo_A_49] | 15.7 nM |  | 18 nM |  | 15 nM
30 | GGGUGGUAGGCGGCCGCCACUGAUUUUUAUAUAUAUAUAACAUGAGGAUCACCCAUGUAGAUAUGCAGGACCGGGCCUGUUGUUU [aaaM] | 21.7 nM | 25 nM | 37.8 nM | 46.1 nM | 28.3 nM
31 | CAAAGUUCGUCUCUGGUCCUCUAAUCGGCUCGAGGACCGGUACGGCCGCCACUCGCCCGACAUGAGGAUCACCCAUGUCUGUAAA [Dilaanis] | 15.5 nM |  | 23 nM | 16.8 nM | 
32 | ACACAUGAGGAUCACCCAUGUCCAAUAGAUACCAGUGAUACGGUGCACCCUUGGCAGCUGUUGCUGAGUGAUGGUUCCCUCGGAA [Same State Theophylline A GF4] | 48.6 nM |  | 138 nM |  | 112 nM
33 | ACCGCGGUAUCGGCCGCCACUUGUGGGUUAAAUCUGGUACAUGAGGAUCACCCAUGUGUCUCCUCGAGGACCGGGAUAGCGUGAC [Geaner] | 97.7 nM |  | 168 nM | 211 nM | 
34 | GGCACAUAGUCGGCCGCCACUACUAACACCUCAGACAACAUGAGGAUCACCCAUGUUCCAGAGUGUAGGACCGGGACUAUGUGCC [Minonka] | 11.7 nM |  | 13.7 nM | 12.2 nM | 
35 | CAAGAAGUAACUGAUACCAGUGUACUGACAUGAGGAUCACCCAUGUUGGGUUUUGUUGUACACCCUUGGCAGCAGAAUCUUCUUG [AstrosExyTheB#22] | 46.9 nM |  | 74.8 nM |  | 58.1 nM
36 | CGGGAACGAUAUGAUACCAGCCUGCGAAAGAAUGCUUAGUACAUGAGGAUCACCCAUGUAGGCCCUUGGCAGCAUCGACUCAAGU [theeternabot_exclusion_MS2_Theo_B_4] | 13.1 nM |  | 18.1 nM |  | 13.2 nM
